Laboratory results as given in the DeepSol protein solubility set.

assay: soluble on expression in E. coli; label from the status in PepcDB or PDB records

| Sequence | soluble on expression in E. coli |
| --- | --- |
| MPFRTIARLNPAKPKAGEEFRLQVVAQHPNEPGTRRDAEGKLIPAKYINLVEVYFEGEKVAEARPGPSTSANPLYAFKFKAEKAGTFTIKLKDTDGDTGEASVKLELV | soluble |
| MPFSFFSRKKPSRRFNDFYEDWSKTLTENCLPLLRQSLSSAASASVLSSNVDLVLRHLVLYYETLDLAADHNTIPYLLFPSWRNSLETPFLFLGDIHPYLLTNLLRSFIDRENQDSDDEDEETSLDLVNQPLKMTMAWKDPSDELVKRIDQIECTMRLMVPGLMDRMRKTQRSFVARVSESWVSSYQVGKKKKLTATVATASTSVDEAAKIEMEELVSIFVDANRLRKSVIMDIVGATSEHQAALFLEGLCQFLAGFKDQILLQDFEILSLPN | soluble |
| MPGAMHDEPDHPELSITVPTLNEAEGLERFFAMLSAQQGVRFELVIADGGSTDGTPESARRLAAATPFAATVIETGRGRGRQMNAGAAAAAGDTLLFLHADCAFPDPLALRTALDAFTQTVAAGGSHRVAGHFRLRFERTDSAPSLPYYFYEWKARLHRPGCTHGDQGLLLGRRFFAEAGPFDESFPILEDVGLAERIAALGEWLLLPAEIVTSARRFEAEGLRERQTLNALLMNFAAMGWDPFLAELPRLYQSQDRAGRLLLGPVLRLIARLLRPLPRRERGRLWRETGRYVRANAWQIPFFLDVRRHFRQGTPVGEGETPRLDLHDRIFDRLTENGAGHRATALLVWIWFRLSLLREPLTPPAARNPEGNGSLEHHHHHH | soluble |
| MPGNSPHYGRWPQHDFTSLKKLRPQSVTSRIQPGSDVIVCAEMDEQWGYVGAKSRQRWLFYAYDSLRKTVVAHVFGERTMATLGRLMSLLSPFDVVIWMTDGWPLYESRLKGKLHVISKRYTQRIERHNLNLRQHLARLGRKSLSFSKSVELHDKVIGHYLNIKHYQLEHHHHHH | soluble |
| MPHKNTKSNVQKITASVASVIVSTGIVMNSSNRRVKATGKREDEIVEVESLKRADTETTKAAAVQTPKINQTKKMSHRTQKVTQMIHYVDEDERPVYDDYTASLIFEQTGILDNVTGKQTWNSNWLPKTTATFSAVEHPVVRNHHLVNPEINEVSAYDVEVTDDTFKNPLLKVHKVVYAHDIEPIKRTQVVTQTIHYRYEDGAVAHDDHVVSLIFTQSGKRDLTNGKEIWDSKWSLTQTFEALPSPVIIGYTADKPMVGPDEVTVDSKNFLDKQNREETVIYSANTITQNKKDGISEEKNVNNSVAVAPLKSAVMIGGVISILKFKRLMVIIKNKKDHKLEHHHHHH | soluble |
| MPILKHLLLKNRKQPMQKKFVATAVGYVPWGDGAAEYFYNLYEYEDGTRECEKFDGGQYYKIPENADFSTKAQVKAWIYGGAVPKSVLSYEALIDEMNENIKQRSQAGGEIDRQLEEALDKQLGRYKNNKKIKNYRKQLNLKHDSSALFLDGEEIYSVTACRINQKI | not soluble |
| MPILTIREVCNINHWGIGYYDVDDSGEIIVRPNPSQHNQTVSLQKLTEAVQQKHQARLPVLFCFPQILEHRLRDINRAFQTAREECGYKGGYCLVYPIKVNQHRRVIESLMSSGQPHGLEAGSKAELMAVLAHAGNRQTLIVCNGYKDREYIRFALMGEKLGHQVYLVIEKLSEIQMVLEEAEKLGIKPRLGVRARLASQGSGKWQSSGGEKSKFGLSASQVLQLVDILKQKNRLDCLQLLHFHLGSQLGNIRDVATGVHESARFYVELHKLGVNIRCFDVGGGLGVDYEGNRTQSDCSVNYSLNEYAATVVWGISQACLEHGLPHPTIITESGRGITAHHAVLVANVIGVERYKPRRLDAPSPEAPRVLHSMWETWTDISASREKRSLRSWIHEGQFDLADVHNQYNVGLLSLAQRAWAEQLYLNICHEVGELFNEKHRSHRTIIDELQERFADKLYVNFSLFQSLPDAWGIDQLFPVCPITGLNEPIARRAVLLDITCDSDGTIDHYIDGDGIAGTMPMPDYPEEEPPLLGFFMVGAYQEILGNMHNLFGDTATADVVVGEDGQFTVIDYDEGNTVADMLEYVYQDPKELMKRYREQIEHSDLPASQAMSFLKELEAGLNGYTYLEDE | not soluble |
| MPITNASPENILRYLHAAGTGTKEAMKSATSPRGILEWFVNFFTCGGVRRSNERWFREVIGKLTTSLLYVNKNAFFDGNKIFLEDVNGCTICLSCGAASENTDPMVIIEVNKNGKTVTDKVDSERFWNVCRMLKLMSKHNIQQPDSLITEDGFLNLRGVNLAHKDFQGEDLSKIDASNADFRETTLSNVNLVGANLCCANLHAVNLMGSNMTKANLTHADLTCANMSGVNLTAAILFGSDLTDTKLNGAKLDKIALTLAKALTGADLTGSQHTPTPLPDYNDRTLFPHPIF | not soluble |
| MPKASDIKKGSAIEHNGKVFFVKEISKLTPSGRAGATLFRMRMYDVATGAKSDESFKADDMINLADFSRRSATFSYVDGNEYVFMDSEDYTPYNFNKEAIEEELLFITEETQGLQILIVDGAPVAIELPSAVDLEIVETAPSIKGASASARTKPATMTTGLTVQVPEYIANGEKVKINTTEHKFMSRALEHHHHHH | not soluble |
| MPKATFYTHVAQVPIFTCRLIARAIRDGGRILVWSDSFGQLQELDKMLWQYEAESFIPHEIWETEEAMPSEPSVLLACGGNLPRIPEGMTVLNLSDGFWNTAPVLPARVLEIVGNSLEELADARERFTAYRRSGFAIEHHGMEGKA | not soluble |
| MPKDELPNHNCIKHLRSVVQQQQSRIAELEKTRAEHKHQLAEQKRDIQLLKAYMRAIRSVNPNLQNLEETIEYNEILEWVNSLQPARVTRWGGMISTPDAVLQAVIKRSLVESGCPASIVNELIENAHERSWPQGLATLETRQMNRRYYENYVAKRIPGKQAVVVMACENQHMGDDMVQEPGLVMIFAHGVEEI | not soluble |
| MPKDWDAFYRNAPEDRPPAFVVRAYGPFVPQGPVLDLAGGLGRNARYFLQRGHPVVLVERSREALRRLSGTPGLTLVALDLEGADAPQSLPQGPFAGIVMAYYVNRPLLQGLAPLLLPGGLVLVEGFSRKEALRRGRPHSPFYWEGEELLTPPPGLALRAFGEGWMEGYRVYAVYLRP | soluble |
| MPKEILMPELAESVVEGEILKWLVEEGDYLKKDQPFVEVMTDKVTVELPSPYEGVLLKKLAKEGEVVKVHAPIALIAEPGEAVEGVKEAPPVQAVEERSIVEPGLPAKEEKEDLSLFKPDPTQVAVKNPFLSGEKPQEGARPGRVLAVPAARKLARELGIPIEEVPGSGPLGRVRVEDVRAYAERRKAPPERPEEGPQVLPAGFPPPPKYAPPKGYEHLEERVPLRGIRRTIAQGLWQSHLYTVRTLNVDEADLTELVRLRERLKPQAEAQGVKLTYLPFIVKAVVRALKKFPMLNTSLDEERQEIVYKRYYHIGLAVATERGLIVPVVRDADRKSVLELAQEIAELSQKAREGRLAPEEVTGSTFTITNIGSVGATLSFPIIHLPDAAILGVHSIRKRPWVMPDGSIRPRDIMFLSLSFDHRLVDGAEAAMFTREVIRLLENPDLLLLEM | soluble |
| MPKETPSKAAADALSDLEIKDSKSNLNKELETLREENRVKSDMLKEKLSKDAENHKAYLKSHQVHRHKLKEMEKEEPLLNEDKERTVLFPIKYHEIWQAYKRAEASFWTAEEIDLSKDIHDWNNRMNENERFFISRVLAFFAASDGIVNENLVENFSTEVQIPEAKSFYGFQIMIENIHSETYSLLIDTYIKDPKESEFLFNAIHTIPEIGEKAEWALRWIQDADALFGERLVAFASIEGVFFSGSFASIFWLKKRGMMPGLTFSNELICRDEGLHTDFACLLFAHLKNKPDPAIVEKIVTEAVEIEQRYFLDALPVALLGMNADLMNQYVEFVADRLLVAFGNKKYYKVENPFDFMENISLAGKTNFFEKRVSDYQKAGVMSKSTKQEAGAFTFNEDF | soluble |
| MPKGGPSGLSPVYAGIREDLDTLLRAYLQFKSVRFYDYKMMFERRGMVDIFNGRSESSEIIEFNEHLLVQCLSYMEEEACPGMPRSLKERLFGLYSLYTFFFIQQESHVVQIRMNPDCARNFRKFAQFLLVEKIYDAYVHDPCYAKSNQTDEKSHGVPVLANLNDPLCRVKALTEQFDMLGVIHREYSKLKDKFGITGNPLNDPTEILSRVIEKNLKAIEDSAIEKVFDVDQDEQSSVDALSSDGDDEETEKDPDIAENDDNVEETIEPSLPSRKRKRKRRQSKTVPISDPEVLDDLFAREILRDNQPTTSDDSAQRMNVDSKIVPGRKKSRKMSAKKAKINLPRIVKSEQIPPLRGIMKNEDLNNSESCIHENVDIVLTQSDSLKNEIKSEIVALNSSTKTSFKSSRRVSFREKENGELDNTIHEIPRRCHSSDESDEENSDEDPVAESSHRPHLTIQLKPIHEKYETSISMNLIYMKNKEKLISADDFNIFKPVEGAEETFETPFDSLIPEDIDSDDEI | not soluble |
